From patent publication US20030027252A1 (TULARIK, published 2003)
Where no end group is shown, it is not given here.

Legend:
Human TGR342 [1] = molecular target: T1, Human TGR342 (human, UniProt Q969V1 1-340); experiment: [125I]-MCH binding to membranes of HEK293 cells transiently transfected with pEF6/V5-TGR342; specific binding = total minus mock-transfected membranes
T1 construct: Full-length cDNA in pEF6-V5 (Invitrogen), transiently expressed in HEK293 or CHO cells; also called MCHR2; MCHR-2

Human TGR342 [2] = molecular target: T1, Human TGR342; experiment: cell-based or functional assay

T1 sequence (Q969V1 whole entry): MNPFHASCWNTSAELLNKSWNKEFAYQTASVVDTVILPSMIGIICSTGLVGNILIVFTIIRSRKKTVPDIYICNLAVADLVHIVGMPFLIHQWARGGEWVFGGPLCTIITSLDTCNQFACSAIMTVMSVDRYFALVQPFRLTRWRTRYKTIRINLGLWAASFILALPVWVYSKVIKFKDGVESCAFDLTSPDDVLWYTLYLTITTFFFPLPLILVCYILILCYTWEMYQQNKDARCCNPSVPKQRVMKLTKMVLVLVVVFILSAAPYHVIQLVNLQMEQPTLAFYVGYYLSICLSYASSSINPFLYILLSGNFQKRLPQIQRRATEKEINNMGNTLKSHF

Row | Kd (Human TGR342 [1]) [nM] | EC50, aequorin luminescence assay (intracellular calcium mobilization), transfected HEK293 cells (Human TGR342 [2]) [nM] | Binder
1 | 9.6 | – | DFDMLRCMLGRVYRPCWQV (peptide, UniProt P20382 147-165, looked up, ends and bridges not checked; also: 125I label, labelled residue not given here, mature) [[^125I]-MCH]
2 | – | 2 | DFDMLRCMLGRVYRPCWQV (peptide, UniProt P20382 147-165, looked up, ends and bridges not checked; cysteine pairing not given here) [melanin-concentrating hormone (MCH)]
